From US8841274B2, “Protein arginine N-methyltransferase-5 method of cancer treatment” (priority 2009, dated 2014) come the findings set out here.

One assay concerns the target T1, DP-1 (Homo sapiens, UniProt Q14186).
T1 construct: endogenous in cells; host or cells: U2OS
T1 sequence (Q14186 1-410): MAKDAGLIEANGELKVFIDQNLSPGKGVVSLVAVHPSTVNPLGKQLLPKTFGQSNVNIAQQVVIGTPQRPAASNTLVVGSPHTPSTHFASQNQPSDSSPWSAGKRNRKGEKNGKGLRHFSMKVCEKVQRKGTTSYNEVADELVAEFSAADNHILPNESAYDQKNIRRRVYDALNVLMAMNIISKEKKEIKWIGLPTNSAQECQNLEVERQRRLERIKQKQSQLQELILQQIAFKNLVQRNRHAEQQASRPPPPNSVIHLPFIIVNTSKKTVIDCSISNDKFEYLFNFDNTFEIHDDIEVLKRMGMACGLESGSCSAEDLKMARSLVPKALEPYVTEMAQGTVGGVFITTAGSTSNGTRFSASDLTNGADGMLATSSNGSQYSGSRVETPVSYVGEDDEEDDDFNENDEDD
Put plainly: Co-immunoprecipitation of ectopic E2F-1 with DP-1 in U2OS cells. It is filed as cell-based. Particulars: expression vector transfected into U2OS cells, HA11 IP. An excerpt: (§1) To establish whether E2F-1 was able to bind to PRMT5 in cells, the interaction between ectopic wild-type E2F-1 or KKK with PRMT5 was studied. […] Either a wild-type E2F-1 expression vector or a KKK expression vector was transfected into U2OS cells, and HA11 antibody was used for immunoprecipitation (IP) followed by immunoblotting with HA11 (E2F-1), PRMT5 or DP-1 as indicated. The level of input (In) protein is indicated. […] In contrast, binding to DP-1 was equivalent for both wild-type E2F-1 and KKK. […] Further, the RGRGR motif is necessary for the interaction, which also encompasses the site of PRMT5 methylation.
(§2) Cells were either left untransfected or transfected with expression vectors as indicated. At 48 h post transfection, cells were harvested in TNN buffer (50 mM Tris-HC1 [pH 7.4], 150 mM NaCl, 5 mM EDTA, 0.5% Ipegal, 50 mM NaF, 0.2 mM sodium orthovanadate and protease inhibitor cocktail (1 mM PMSF, leupeptin [1 μg/ml], aprotinin [1 μg/m1], and pepstatin A [1 μg/ml])) and rotated at 4° C. for 30 min to 1 h. The cell lysate was then homogenised, centrifuged at 11000 rpm for 10 min to remove cell debris and the supernatant collected. All lysates were normalized for protein concentration and, where appropriate, for transfection by β-galactosidase activity. […] Enhanced chemi-luminescence (Pierce Biotechnology, Rockford, Ill.) was used to visualize antibody binding.

The target of assay [1] is T2, PRMT5 (Homo sapiens, UniProt O14744). The assay is described as follows: In vitro methyltransferase assay of E2F-1 proteins. The assay is classed as biochemical. Set-up: made in house; host or cells: U2OS cells (transient transfection, anti-Flag immunoprecipitation, elution). To be noted: about 1 μg protein, 3H labeled SAM; mutants compared with wild-type E2F-1. The method, then: To assess whether the RGRGR motif was a direct target for PRMT5 methylation, a series of mutant derivatives of E2F-1 were made in which each arginine (R) residue was substituted with a lysine residue (K; FIG. 1a), and the ability of the mutant derivative to be methylated in vitro then assessed. […] In FIG. 1b(i) each of the indicated proteins (about 1 μg) was used in the methylation reaction. In vitro methylated samples were analysed by SDS-PAGE as described below. E2F-1 is indicated. In FIG. 1b(ii) samples in FIG. 1b(i) were counted (3H cpm as indicated). Histones treated with PRMT5 served as the positive control. The data shown provide one example taken from two different experiments.
Flag-PRMT5 plasmid was transfected into U2OS cells for 48 h. Cells were lysed and Flag-PRMT5 was immunoprecipitated with agarose beads and then eluted. The elute was mixed with recombinant substrates (GST fusion proteins or histones) in methylation reaction buffer (50 mM Tris, 0.1 mM EDTA, 50 mM NaCl) with ^3H labeled SAM (as —CH3 group donor) to a volume of 40 μl and incubated at 30° C. for 90 min. Half of the reactions were then spotted onto p81 membrane circles (Whatman) and air dried. The membranes were then washed three times, 5 min each in 50 ml of wash buffer (46 mM NaHCO3, 4 mM Na2CO3, pH 9.2). After washing briefly with acetone, membranes were air dried, placed in scintillation vials, immersed in scintillation fluid (Beckman Coulter) and disintegrations per minute (DPM) measured in a scintillation counter. The other half of the reactions were run on SDS-PAGE gel and used to detect ^3H auto-radioisotope/methylation signal.
Target sequence in this assay (O14744 whole entry): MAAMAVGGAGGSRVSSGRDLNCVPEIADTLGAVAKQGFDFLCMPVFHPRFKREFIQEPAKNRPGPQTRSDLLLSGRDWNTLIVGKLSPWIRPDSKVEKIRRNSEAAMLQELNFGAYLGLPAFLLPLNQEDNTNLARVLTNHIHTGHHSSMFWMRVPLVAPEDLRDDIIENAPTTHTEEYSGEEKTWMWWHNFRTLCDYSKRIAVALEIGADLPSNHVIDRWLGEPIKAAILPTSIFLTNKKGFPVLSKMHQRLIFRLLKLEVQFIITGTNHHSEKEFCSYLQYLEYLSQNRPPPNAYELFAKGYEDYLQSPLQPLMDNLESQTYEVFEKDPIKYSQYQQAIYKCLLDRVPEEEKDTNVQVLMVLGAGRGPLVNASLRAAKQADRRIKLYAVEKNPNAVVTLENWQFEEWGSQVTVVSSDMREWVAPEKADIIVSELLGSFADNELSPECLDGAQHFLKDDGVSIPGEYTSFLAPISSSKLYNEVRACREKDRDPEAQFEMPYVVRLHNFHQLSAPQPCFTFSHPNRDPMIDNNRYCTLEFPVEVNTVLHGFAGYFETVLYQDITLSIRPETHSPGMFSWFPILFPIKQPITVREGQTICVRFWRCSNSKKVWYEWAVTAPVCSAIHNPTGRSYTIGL
Target sequence in this assay (Q9BQA1 whole entry partner): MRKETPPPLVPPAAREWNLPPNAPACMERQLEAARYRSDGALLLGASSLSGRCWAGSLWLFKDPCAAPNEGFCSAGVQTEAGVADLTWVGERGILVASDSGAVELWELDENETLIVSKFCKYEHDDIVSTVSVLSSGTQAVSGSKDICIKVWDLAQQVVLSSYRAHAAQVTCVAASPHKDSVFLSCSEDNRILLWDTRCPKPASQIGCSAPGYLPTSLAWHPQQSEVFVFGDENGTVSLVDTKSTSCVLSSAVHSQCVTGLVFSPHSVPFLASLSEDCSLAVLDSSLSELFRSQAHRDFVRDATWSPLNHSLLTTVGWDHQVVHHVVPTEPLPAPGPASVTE

The target of assay [2] is T2, PRMT5. Put plainly: GST binding assay with U2OS cell lysate, PRMT5 immunoblot. Set-up: The indicated GST proteins were incubated with U2OS cell lysate; endogenous in cells; host or cells: U2OS. Particulars: GST-E2F-1 proteins incubated with U2OS cell lysate. As for the experimental part: It was then assessed whether E2F-1 could interact with PRMT5 and thereafter the role of each R residue in mediating the interaction. […] The indicated GST proteins were incubated with U2OS cell lysate, and bound proteins immunoblotted using anti-GST (for input GST), DP-1 or PRMT5 antibodies. Binding to DP-1, the major heterodimeric partner for E2F-1 (Stevens and La Thangue 2003), served as a control since it bound equally to each of the E2F-1 proteins.
GST or GST tagged proteins (10 μg each) were incubated with agarose beads and damaged or undamaged U2OS cell lysates for 3 h. Beads were then washed with TNN buffer 3 times. SDS sample buffer was added to beads and samples were analysed by immunoblotting.
Target sequence in this assay (O14744 whole entry): as the sequence (O14744 whole entry) above
Background: In western blotting, separated proteins are transferred to a membrane and probed.

Assay [3] has as its target T2, PRMT5. Put plainly: Co-immunoprecipitation of ectopic E2F-1 with PRMT5 in U2OS cells. Set-up: The indicated GST proteins were incubated with U2OS cell lysate; endogenous in cells; host or cells: U2OS. To be noted: expression vector transfected into U2OS cells, HA11 IP. The assay is classed as cell-based.
From the text: as §1, §2
Target sequence in this assay (O14744 whole entry): as above

Regarding “KKK: methylation-defective E2F-1 protein containing the mutations R109K, R111K and R113K”, in the assay with DP-1, the “binding to DP-1 in cells” value is reported as “equivalent”. Besides, the “in vitro methylation by PRMT5” value with PRMT5 [1] is “could not be methylated by PRMT5”. Besides, the “binding to PRMT5” value with PRMT5 [2] is “completely devoid of PRMT5 binding”. Further, in the assay with PRMT5 [3], the “co-immunoprecipitation with PRMT5” value is listed as “not apparent”.
